Experimental data: the supplement of paper PMC10065799, “High-throughput profiling of sequence recognition by tyrosine kinases and SH2 domains using bacterial peptide display” (eLife, 2023)

What was measured:
Hck = Hck (UniProt P08631); assay: phosphorylation enrichment, bacterial display (enrichment ratio); higher = better substrate or ligand; peptides without Tyr show the background
EPHB2 = EPHB2 (UniProt P29323); assay: as above
FGFR1 = FGFR1 (UniProt P11362); assay: as above
MERTK = MERTK (UniProt Q12866); assay: as above
c-Abl (mouse) = assay: as above
AncSZ = assay: as above
EPHB1 = EPHB1 (UniProt P54762); assay: as above
c-Src = assay: as above
Jak2 = Jak2 (UniProt O60674); assay: as above
Fes = Fes (UniProt P07332); assay: as above
Fer (mouse) = assay: as above
FGFR3 = FGFR3 (UniProt P22607); assay: as above
Fyn = Fyn (UniProt P06241); assay: as above
c-Src SH2 = assay: SH2 binding enrichment of the phosphorylated peptide, bacterial display (enrichment ratio); higher = better substrate or ligand; peptides without Tyr show the background
Grb2 SH2 = Grb2 SH2 (UniProt P62993); assay: as above
SHP2-C SH2 = assay: as above
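Throughout, for SH2 binding enrichment of the phosphorylated peptide, bacterial display: peptide library displayed on the E. coli surface as eCPX fusions, selected cells deep-sequenced, score is each peptide's frequency after selection divided by its frequency in the input.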
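Throughout, for phosphorylation enrichment, bacterial display: 11-residue human phosphosite peptides and single-mutation variants displayed on the E. coli surface, counted by deep sequencing, each peptide's frequency after selection divided by its frequency in the unselected input library; frequency after pTyr selection over input frequency; kinase dosed for 20-30% of maximal phosphorylation in three min.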

Chain of FGFR3 (P22607 whole entry, looked up): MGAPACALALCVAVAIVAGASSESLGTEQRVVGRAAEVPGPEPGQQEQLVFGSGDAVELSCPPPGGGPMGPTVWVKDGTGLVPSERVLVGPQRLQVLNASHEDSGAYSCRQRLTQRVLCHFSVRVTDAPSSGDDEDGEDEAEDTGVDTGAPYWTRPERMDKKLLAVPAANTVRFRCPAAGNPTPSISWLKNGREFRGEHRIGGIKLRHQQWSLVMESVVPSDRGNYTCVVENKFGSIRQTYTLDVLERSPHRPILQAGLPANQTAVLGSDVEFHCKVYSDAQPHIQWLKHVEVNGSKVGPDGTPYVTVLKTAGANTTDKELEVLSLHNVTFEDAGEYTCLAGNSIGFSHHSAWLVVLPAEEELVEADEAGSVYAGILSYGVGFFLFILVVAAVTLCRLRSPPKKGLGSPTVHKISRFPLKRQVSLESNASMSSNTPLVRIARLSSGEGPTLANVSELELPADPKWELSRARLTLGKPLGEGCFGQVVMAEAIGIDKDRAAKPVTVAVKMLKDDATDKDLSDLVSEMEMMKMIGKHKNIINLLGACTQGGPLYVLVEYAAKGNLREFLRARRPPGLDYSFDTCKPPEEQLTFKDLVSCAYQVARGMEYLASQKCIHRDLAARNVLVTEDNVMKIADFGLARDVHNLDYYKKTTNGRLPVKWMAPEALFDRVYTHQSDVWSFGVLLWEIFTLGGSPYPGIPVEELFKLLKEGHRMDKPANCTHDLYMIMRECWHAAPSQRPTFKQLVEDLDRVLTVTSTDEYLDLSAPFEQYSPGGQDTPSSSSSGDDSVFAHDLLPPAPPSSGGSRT
Chain of Hck (P08631 whole entry, looked up): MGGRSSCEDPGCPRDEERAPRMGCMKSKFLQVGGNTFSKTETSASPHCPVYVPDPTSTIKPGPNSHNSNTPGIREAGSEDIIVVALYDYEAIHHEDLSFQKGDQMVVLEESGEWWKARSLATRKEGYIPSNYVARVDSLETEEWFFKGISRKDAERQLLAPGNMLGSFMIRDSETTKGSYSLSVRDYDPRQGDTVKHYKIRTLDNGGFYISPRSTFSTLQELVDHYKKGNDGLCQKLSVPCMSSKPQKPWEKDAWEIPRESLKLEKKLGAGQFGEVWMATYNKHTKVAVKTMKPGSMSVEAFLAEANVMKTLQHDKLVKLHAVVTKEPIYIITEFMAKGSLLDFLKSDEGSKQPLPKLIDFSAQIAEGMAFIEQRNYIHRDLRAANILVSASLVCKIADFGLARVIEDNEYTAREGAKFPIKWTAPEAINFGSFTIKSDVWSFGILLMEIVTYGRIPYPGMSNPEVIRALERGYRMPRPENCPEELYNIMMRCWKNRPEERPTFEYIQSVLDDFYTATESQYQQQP
Chain of MERTK (Q12866 whole entry, looked up): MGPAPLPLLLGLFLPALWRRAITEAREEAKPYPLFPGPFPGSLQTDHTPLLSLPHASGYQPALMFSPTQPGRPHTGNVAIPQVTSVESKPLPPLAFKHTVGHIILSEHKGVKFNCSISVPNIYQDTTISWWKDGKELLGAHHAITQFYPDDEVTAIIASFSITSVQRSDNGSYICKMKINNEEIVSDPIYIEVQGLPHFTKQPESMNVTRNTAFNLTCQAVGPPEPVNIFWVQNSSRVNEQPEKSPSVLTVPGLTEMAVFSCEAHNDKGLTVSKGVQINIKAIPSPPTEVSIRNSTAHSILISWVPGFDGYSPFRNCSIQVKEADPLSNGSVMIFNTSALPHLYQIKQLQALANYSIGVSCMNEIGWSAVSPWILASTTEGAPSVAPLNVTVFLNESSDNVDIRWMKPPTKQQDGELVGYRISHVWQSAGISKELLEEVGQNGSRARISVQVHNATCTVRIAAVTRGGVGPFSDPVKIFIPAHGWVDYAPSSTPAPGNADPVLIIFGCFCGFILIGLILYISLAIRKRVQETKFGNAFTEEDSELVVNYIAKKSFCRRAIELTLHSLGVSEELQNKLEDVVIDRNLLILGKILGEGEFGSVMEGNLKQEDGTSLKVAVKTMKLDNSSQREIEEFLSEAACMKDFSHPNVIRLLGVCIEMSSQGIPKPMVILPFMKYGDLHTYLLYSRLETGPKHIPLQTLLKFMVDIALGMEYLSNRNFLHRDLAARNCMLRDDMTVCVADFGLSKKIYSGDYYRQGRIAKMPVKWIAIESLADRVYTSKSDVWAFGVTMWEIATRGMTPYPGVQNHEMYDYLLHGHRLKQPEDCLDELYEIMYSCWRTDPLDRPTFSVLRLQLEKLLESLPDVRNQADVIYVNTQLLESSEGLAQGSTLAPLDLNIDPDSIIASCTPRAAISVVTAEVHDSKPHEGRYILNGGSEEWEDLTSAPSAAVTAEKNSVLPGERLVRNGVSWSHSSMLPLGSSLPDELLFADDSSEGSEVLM
Chain of Jak2 (O60674 whole entry, looked up): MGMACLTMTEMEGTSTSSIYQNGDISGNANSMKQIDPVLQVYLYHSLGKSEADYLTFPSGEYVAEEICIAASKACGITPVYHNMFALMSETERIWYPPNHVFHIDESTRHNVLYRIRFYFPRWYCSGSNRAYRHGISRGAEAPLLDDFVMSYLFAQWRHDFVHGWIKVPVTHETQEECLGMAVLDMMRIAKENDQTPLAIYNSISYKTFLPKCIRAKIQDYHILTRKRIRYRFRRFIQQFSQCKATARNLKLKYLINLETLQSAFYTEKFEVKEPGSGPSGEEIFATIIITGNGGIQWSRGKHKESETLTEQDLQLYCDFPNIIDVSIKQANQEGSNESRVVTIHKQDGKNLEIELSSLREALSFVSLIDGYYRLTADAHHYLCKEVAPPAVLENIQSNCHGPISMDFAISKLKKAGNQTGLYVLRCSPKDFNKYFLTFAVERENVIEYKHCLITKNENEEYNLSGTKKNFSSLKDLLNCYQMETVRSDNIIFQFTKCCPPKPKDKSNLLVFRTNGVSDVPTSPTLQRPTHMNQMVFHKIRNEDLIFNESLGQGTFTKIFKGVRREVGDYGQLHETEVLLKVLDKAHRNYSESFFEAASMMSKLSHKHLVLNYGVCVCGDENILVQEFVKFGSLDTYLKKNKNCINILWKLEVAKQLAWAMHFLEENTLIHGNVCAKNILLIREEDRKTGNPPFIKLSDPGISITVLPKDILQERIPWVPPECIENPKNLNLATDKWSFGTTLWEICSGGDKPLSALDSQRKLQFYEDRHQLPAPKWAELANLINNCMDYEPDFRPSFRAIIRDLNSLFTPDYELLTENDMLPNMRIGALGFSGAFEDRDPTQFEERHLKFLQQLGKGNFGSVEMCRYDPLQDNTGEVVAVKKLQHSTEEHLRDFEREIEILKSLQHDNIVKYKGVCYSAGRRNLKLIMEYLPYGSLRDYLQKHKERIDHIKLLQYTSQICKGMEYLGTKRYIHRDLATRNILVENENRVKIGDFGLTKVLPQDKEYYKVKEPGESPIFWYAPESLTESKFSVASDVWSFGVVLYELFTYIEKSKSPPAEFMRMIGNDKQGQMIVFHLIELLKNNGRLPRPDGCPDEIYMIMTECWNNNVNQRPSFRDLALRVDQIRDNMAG
Chain of EPHB1 (P54762 whole entry, looked up): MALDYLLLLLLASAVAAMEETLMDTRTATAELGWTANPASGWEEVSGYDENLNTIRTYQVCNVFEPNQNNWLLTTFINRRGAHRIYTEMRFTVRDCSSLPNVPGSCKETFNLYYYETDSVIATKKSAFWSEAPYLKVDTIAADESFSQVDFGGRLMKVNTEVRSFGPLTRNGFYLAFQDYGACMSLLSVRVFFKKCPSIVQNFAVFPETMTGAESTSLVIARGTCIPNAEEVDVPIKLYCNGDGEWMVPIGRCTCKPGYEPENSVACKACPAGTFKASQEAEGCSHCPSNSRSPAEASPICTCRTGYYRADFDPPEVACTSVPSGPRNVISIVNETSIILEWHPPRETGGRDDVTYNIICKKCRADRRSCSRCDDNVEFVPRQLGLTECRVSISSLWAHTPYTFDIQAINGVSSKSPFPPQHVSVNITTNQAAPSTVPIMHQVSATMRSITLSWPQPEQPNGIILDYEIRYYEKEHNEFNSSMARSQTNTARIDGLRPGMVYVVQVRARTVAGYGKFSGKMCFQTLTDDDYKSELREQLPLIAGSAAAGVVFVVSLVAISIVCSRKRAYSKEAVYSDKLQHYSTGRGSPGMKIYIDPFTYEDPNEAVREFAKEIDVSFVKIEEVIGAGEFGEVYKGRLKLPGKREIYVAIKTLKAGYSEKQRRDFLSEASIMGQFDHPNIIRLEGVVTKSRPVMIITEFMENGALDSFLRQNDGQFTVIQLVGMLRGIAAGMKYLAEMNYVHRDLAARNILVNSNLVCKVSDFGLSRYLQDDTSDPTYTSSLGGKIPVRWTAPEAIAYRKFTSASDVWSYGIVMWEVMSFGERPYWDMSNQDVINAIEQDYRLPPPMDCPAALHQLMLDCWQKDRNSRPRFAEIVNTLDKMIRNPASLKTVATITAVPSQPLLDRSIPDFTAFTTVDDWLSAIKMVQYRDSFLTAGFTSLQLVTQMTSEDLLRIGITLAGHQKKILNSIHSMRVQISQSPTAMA
Chain of Fyn (P06241 whole entry, looked up): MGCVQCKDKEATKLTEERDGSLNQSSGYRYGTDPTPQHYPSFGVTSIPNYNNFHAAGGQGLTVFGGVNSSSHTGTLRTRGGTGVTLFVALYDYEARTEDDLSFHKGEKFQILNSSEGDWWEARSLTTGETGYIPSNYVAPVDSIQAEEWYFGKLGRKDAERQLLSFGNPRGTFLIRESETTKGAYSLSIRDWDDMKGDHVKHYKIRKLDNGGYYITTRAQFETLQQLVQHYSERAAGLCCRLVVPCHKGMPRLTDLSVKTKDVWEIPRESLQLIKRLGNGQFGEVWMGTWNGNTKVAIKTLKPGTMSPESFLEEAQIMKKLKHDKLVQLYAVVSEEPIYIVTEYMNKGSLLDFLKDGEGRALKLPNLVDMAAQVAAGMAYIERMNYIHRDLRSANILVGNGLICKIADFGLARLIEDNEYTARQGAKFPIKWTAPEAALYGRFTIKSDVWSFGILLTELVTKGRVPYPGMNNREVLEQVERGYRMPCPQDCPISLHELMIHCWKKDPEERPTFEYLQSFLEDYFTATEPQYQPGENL

Sequence	phosphorylation enrichment (Hck)	phosphorylation enrichment (EPHB2)	phosphorylation enrichment (FGFR1)	phosphorylation enrichment (MERTK)	phosphorylation enrichment (c-Abl (mouse))	phosphorylation enrichment (AncSZ)	phosphorylation enrichment (EPHB1)	phosphorylation enrichment (c-Src)	phosphorylation enrichment (Jak2)	phosphorylation enrichment (Fes)	phosphorylation enrichment (Fer (mouse))	phosphorylation enrichment (FGFR3)	phosphorylation enrichment (Fyn)	SH2 binding enrichment (c-Src SH2)	SH2 binding enrichment (Grb2 SH2)	SH2 binding enrichment (SHP2-C SH2)
HNLDFYKETTN [FGFR3_Y648_K650E_YF]	0.53	0.496	0.645	0.662	1.14	1.23	0.891	1.14	1.48	1.5	0.656	0.915	0.731	0.995	0.841	1.39
HNQDGYSFLSR [LDLR_Y845_P848L_YF]	0.841	1	0.765	0.914	0.635	0.867	0.837	0.435	1.25	0.795	0.427	0.657	0.654	6.05	0.784	2.83
HNVAIYEGFAL [ACTC1_Y168_P166A_YF]	9.95	11.2	0.56	8.57	9.06	1.28	11.1	9.03	0.972	1.3	17	0.781	13.3	0.509	0.877	1
HPFNSYTFPRL [PAK5_Y316_S312P_YF]	0.474	0.64	0.531	1.41	1.05	1.3	0.683	0.602	0.995	0.957	0.461	0.786	1.19	1	0.642	1.35
HQPGEYIFHAE [FLT3_Y416]	1.21	1.12	0.819	0.74	1.11	1.77	0.887	0.852	1.29	1.29	0.795	1.28	0.915	0.445	0.668	0.743
HRGSLYLAIEF [TEK_Y899_Y897S_YF]	0.48	0.491	0.589	0.538	1.19	1.23	0.641	0.489	1.28	1.55	0.748	0.902	0.538	0.536	0.956	0.683
HSGIFYKPESL [L2HGDH_Y103_YF]	0.704	1.11	1.11	0.934	3.79	1.34	0.793	1.45	2.08	1.82	1.05	0.934	0.642	0.507	0.641	0.831
IEDNKYTAREG [HCK_Y411_E410K]	0.469	0.543	0.558	0.356	0.756	0.926	0.588	0.506	0.788	1.03	0.392	0.545	0.507	0.573	0.924	0.828
IFHENYNAGTY [CFI_Y421]	0.717	0.585	0.557	0.533	0.603	0.804	0.656	0.655	0.783	1.02	1.01	0.588	0.664	0.625	0.788	0.676
IFLADCRIMEG [ALOX12B_Y318_Y318C_YF]	0.662	0.664	0.654	0.5	0.894	1.33	0.803	0.525	1.2	1.48	0.594	1.02	0.579	0.461	0.886	0.62
IFLADYRIMEG [ALOX12B_Y318_YF]	0.421	0.523	0.814	0.478	0.641	0.689	0.454	0.528	0.782	0.984	0.453	0.787	0.408	0.987	1.16	1.12
IFRAAYFGVFD [SLC25A4_Y191_YF]	0.457	0.594	0.499	0.447	0.761	0.985	0.751	0.438	0.891	1.25	0.523	0.717	0.497	0.546	0.832	0.588
IGERTYGQVYK [CDK13_Y716_G714R]	3.64	0.416	0.381	0.408	0.536	0.507	0.409	6.07	0.516	0.555	0.392	0.41	9.16	0.565	0.866	0.675
IGKAGYTDKVV [ENO1_Y236]	0.388	0.395	0.456	0.305	0.481	0.531	0.398	0.335	0.632	0.642	0.365	0.508	0.359	0.371	0.757	0.606
IGNGYYFRVFS [MYBPC3_Y1136]	0.557	0.667	0.514	0.449	0.967	1.34	0.729	0.359	1.44	1.43	0.556	0.947	0.496	0.561	0.977	0.861
IHSGIYFKPES [L2HGDH_Y102_YF]	2.14	0.674	0.702	6.44	8.52	1.39	0.996	1.96	2.59	0.887	0.497	0.744	1.72	0.777	0.747	0.829
